Data published in the Human Domainome abundance scans (Beltran et al. 2025).
± gives the uncertainty stated by the source.

B1: Far upstream element-binding protein 1, residues 98 to 169; numbered along this chain, Q96AE4 (parent)
chain: RSVMTEEYKVPDGMVGFIIGRGGEQISRIQQESGCKIQIAPDSGGLPERSCMLTGTPESVQSAKRLLDQIVE

Variants of: B1
Assay: abundance fitness (aPCA) (normalised: wild type 0, dead -1); higher = more abundant; growth selection in yeast, the domain comes from the species named
Conditions: Homo sapiens

Row | Variant | abundance fitness
1 | Q25S | -0.023 ± 0.028
2 | Q25V | -0.07 ± 0.027
3 | Q25Y | -0.132 ± 0.046
4 | Q25R | -0.016 ± 0.022
5 | Q25W | -0.145 ± 0.028
6 | C35F | -1.1 ± 0.07
7 | C35M | -0.847 ± 0.045
8 | C35Y | -1.09 ± 0.07
9 | C35G | -0.489 ± 0.025
10 | C35R | -0.935 ± 0.031
11 | C35H | -0.835 ± 0.059
12 | C35I | -0.261 ± 0.033
13 | C35A | -0.036 ± 0.034
14 | C35D | -0.81 ± 0.06
15 | C35V | -0.087 ± 0.026
16 | C35N | -0.955 ± 0.074
17 | C35K | -0.945 ± 0.051
18 | C35S | -0.154 ± 0.025
19 | C35W | -1.19 ± 0.053
20 | C35P | -0.986 ± 0.051
21 | C35E | -0.835 ± 0.044
22 | C35Q | -0.936 ± 0.053
23 | C35L | -0.554 ± 0.027
24 | C35T | -0.172 ± 0.03

Row | Variant | abundance fitness
25 | Q31I | -0.053 ± 0.048
26 | Q31G | -0.089 ± 0.026
27 | Q31E | 0.028 ± 0.035
28 | Q31F | -0.089 ± 0.047
29 | Q31W | -0.153 ± 0.034
30 | Q31R | -0.014 ± 0.024
31 | Q31S | -0.025 ± 0.029
32 | Q31H | -0.06 ± 0.047
33 | Q31L | -0.043 ± 0.028
34 | Q31T | -0.024 ± 0.035
35 | Q31N | -0.013 ± 0.05
36 | Q31A | -0.026 ± 0.028
37 | Q31M | -0.061 ± 0.04
38 | Q31D | 0.034 ± 0.043
39 | Q31C | 0.001 ± 0.048
40 | Q31Y | -0.09 ± 0.055
41 | E32M | -0.067 ± 0.038
42 | E32A | -0.071 ± 0.033
43 | E32D | -0.076 ± 0.044
44 | E32C | -0.096 ± 0.046
45 | E32Y | -0.235 ± 0.048
46 | E32V | -0.05 ± 0.029
47 | E32N | -0.12 ± 0.062
48 | E32L | -0.092 ± 0.028

Row | Variant | abundance fitness
49 | E32K | -0.077 ± 0.04
50 | E32Q | -0.059 ± 0.035
51 | E32G | -0.166 ± 0.026
52 | E32P | -0.796 ± 0.053
53 | E32F | -0.208 ± 0.051
54 | I29F | -0.144 ± 0.053
55 | I29V | -0.031 ± 0.029
56 | I29R | -0.876 ± 0.038
57 | I29H | -0.423 ± 0.11
58 | I29S | -0.682 ± 0.039
59 | I29Q | -0.915 ± 0.12
60 | I29A | -0.226 ± 0.03
61 | I29D | -0.935 ± 0.083
62 | I29G | -0.943 ± 0.035
63 | I29C | -0.179 ± 0.041
64 | I29K | -0.881 ± 0.065
65 | I29W | -0.26 ± 0.033
66 | I29Y | -0.246 ± 0.05
67 | I29N | -0.787 ± 0.09
68 | I29M | -0.042 ± 0.034
69 | I29E | -0.781 ± 0.04
70 | I29P | -0.906 ± 0.073
71 | I29T | -0.211 ± 0.034
72 | S27K | 0.036 ± 0.037

Row | Variant | abundance fitness
73 | S27M | -0.025 ± 0.038
74 | S27A | 0.024 ± 0.027
75 | S27P | -0.198 ± 0.036
76 | S27W | -0.057 ± 0.031
77 | S27L | -0.054 ± 0.031
78 | S27E | 0.007 ± 0.033
79 | S27G | -0.016 ± 0.023
80 | S27Q | 0.027 ± 0.04
81 | S27H | -0.012 ± 0.056
82 | S27Y | -0.07 ± 0.047
83 | S27D | -0.046 ± 0.041
84 | S27C | -0.042 ± 0.04
85 | S27N | -0.042 ± 0.051
86 | S27I | -0.055 ± 0.057
87 | S27V | -0.017 ± 0.027
88 | S27R | 0.014 ± 0.024
89 | S27T | -0.003 ± 0.032
90 | I26P | -0.515 ± 0.044
91 | I26H | -0.139 ± 0.054
92 | I26V | -0.104 ± 0.029
93 | I26S | -0.239 ± 0.033
94 | I26D | -0.529 ± 0.058
95 | I26M | -0.084 ± 0.036
96 | I26R | -0.17 ± 0.025

Row | Variant | abundance fitness
97 | I26T | -0.092 ± 0.039
98 | I26A | -0.132 ± 0.032
99 | I26C | -0.103 ± 0.043
100 | I26L | 0.023 ± 0.029
101 | I26W | -0.158 ± 0.03
102 | I26Q | -0.096 ± 0.035
103 | S33C | -0.158 ± 0.037
104 | S33P | -0.865 ± 0.051
105 | S33W | -0.59 ± 0.035
106 | S33T | -0.034 ± 0.032
107 | S33D | -0.868 ± 0.063
108 | S33Y | -0.435 ± 0.049
109 | S33M | -0.414 ± 0.036
110 | S33L | -0.325 ± 0.028
111 | S33A | -0.068 ± 0.027
112 | S33G | -0.522 ± 0.026
113 | S33H | -0.308 ± 0.046
114 | S33Q | -0.431 ± 0.037
115 | S33F | -0.219 ± 0.054
116 | S33I | -0.313 ± 0.054
117 | S33N | -0.534 ± 0.059
118 | K36F | -0.044 ± 0.053
119 | K36I | -0.078 ± 0.056
120 | K36M | -0.047 ± 0.039

Row | Variant | abundance fitness
121 | K36G | -0.058 ± 0.024
122 | K36N | -0.059 ± 0.043
123 | K36P | -0.666 ± 0.041
124 | K36A | -0.018 ± 0.024
125 | K36D | -0.02 ± 0.042
126 | K36R | -0.034 ± 0.024
127 | K36C | -0.031 ± 0.04
128 | K36H | -0.046 ± 0.051
129 | K36Q | -0.04 ± 0.034
130 | K36L | -0.026 ± 0.027
131 | K36E | -0.025 ± 0.031
132 | G34V | -0.256 ± 0.028
133 | G34Q | -0.086 ± 0.041
134 | G34S | -0.15 ± 0.03
135 | G34L | -0.147 ± 0.031
136 | G34P | -0.837 ± 0.062
137 | G34C | -0.095 ± 0.043
138 | G34M | -0.117 ± 0.04
139 | G34H | -0.051 ± 0.052
140 | G34W | -0.364 ± 0.037
141 | G34F | -0.222 ± 0.048
142 | G34I | -0.316 ± 0.06
143 | G34E | -0.06 ± 0.029
144 | G34T | -0.124 ± 0.035

Row | Variant | abundance fitness
145 | G34Y | -0.269 ± 0.063
146 | G34A | -0.1 ± 0.028
147 | G34D | -0.094 ± 0.042
148 | G34R | -0.071 ± 0.026
149 | G34K | -0.081 ± 0.04
150 | R28I | -0.215 ± 0.059
151 | R28F | -0.168 ± 0.05
152 | R28H | -0.021 ± 0.057
153 | R28C | -0.109 ± 0.056
154 | R28E | -0.058 ± 0.03
155 | R28V | -0.108 ± 0.028
156 | R28K | -0.028 ± 0.038
157 | R28L | -0.071 ± 0.03
158 | R28Y | -0.131 ± 0.044
159 | R28M | -0.083 ± 0.036
160 | R28T | -0.068 ± 0.035
161 | R28S | -0.045 ± 0.029
162 | R28D | -0.016 ± 0.041
163 | R28G | -0.093 ± 0.024
164 | R28N | -0.102 ± 0.048
165 | R28Q | -0.033 ± 0.038
166 | R28W | -0.104 ± 0.032
167 | R28A | -0.066 ± 0.028
